Results reported in patent US8551717B2, “Method for determining sumoylation” (Medizinische Hochschule Hannover, priority 2008, dated 2013).
Each block holds one substance with its values, some of them ahead of it.

Tests used:
Format in all cases: cell-based
[1] = biological target: T1, MK2-U (Homo sapiens, UniProt P49137+P63279); experiment: Trans-SUMOylation by MK2-U; conditions: protein 2 construct coexpressed with MK2-U and EGFP-SUMO1 in HEK293; western blot; Table 2
T1 construct: expressed in transfected cells; host or cells: HEK293

[2] = biological target: T2, U-TAF10 (Homo sapiens, UniProt P63279+Q12962); experiment: Trans-SUMOylation by U-TAF10; set-up: key: (++), strong TransSUMOylation; (+), TransSUMOylation; (+/−) weak TransSUMOylation; (−) no detectable TransSUMOylation; conditions: protein 2 construct coexpressed with U-TAF10 and EGFP-SUMO1 in HEK293; western blot; Table 2
T2 construct: Ubc9 (fusion partner); expressed in transfected cells; host or cells: HEK293
Source text: (§1) To identify new SUMOylation substrates and to study the function of SUMOylation the Ubc9/substrate dimerisation-dependent SUMOylation system (USDDS) was developed which consists of fusions of the SUMOylation substrate and of the SUMO-conjugating enzyme Ubc9 to the chemically activatable heterodimerisation domains FKBP and FRB, respectively, as shown in FIG. 2. When the substrate protein fused to FKBP is coexpressed with Ubc9-FRB, treatment of HEK293 cells with the rapamycin-related dimerizer AP21967 induces SUMOylation of the substrate protein fused to FKBP at its specific SUMOylation site. […] Dependent on an EcoRl site in the coding sequence, seven C-terminal amino acids of the human STAT1a in the STAT1-FKBP/FRB fusion proteins are missing. For the SUMOylation analysis HEK293 (human embryonic kidney cells) cells have been used. HEK293 cells were cultured in Dulbecco's modified Eagle's medium with high glucose, complemented with 10% fetal calf serum, 2 mM L-glutamine, 100 U/ml penicillin and […] streptomycin. […]
(§2) As shown above, the SUMOylation of a protein of interest can be induced by the heterodimerisation with a binding protein fused to Ubc9. […] Therefore the protein pairs were coexpressed with EGFP-SUMO1 in HEK293 cells and after 24h the transfectants were lysed and the protein extracts were analyzed in western blots. […]

[3] = biological target: T3, ERK2-U (Homo sapiens, UniProt P28482+P63279); experiment: Trans-SUMOylation by ERK2-U; conditions: protein 2 construct coexpressed with ERK2-U and EGFP-SUMO1 in HEK293; western blot; Table 2
T3 construct: expressed in transfected cells; host or cells: HEK293

[4] = biological target: T4, U-MK5 (Homo sapiens, UniProt P63279+Q8IW41); experiment: Trans-SUMOylation by U-MK5; set-up: key: (++), strong TransSUMOylation; (+), TransSUMOylation; (+/−) weak TransSUMOylation; (−) no detectable TransSUMOylation; conditions: protein 2 construct coexpressed with U-MK5 and EGFP-SUMO1 in HEK293; western blot; Table 2
T4 construct: expressed in transfected cells; host or cells: HEK293
Source text: To identify new SUMOylation substrates and to study the function of SUMOylation the Ubc9/substrate dimerisation-dependent SUMOylation system (USDDS) was developed which consists of fusions of the SUMOylation substrate and of the SUMO-conjugating enzyme Ubc9 to the chemically activatable heterodimerisation domains FKBP and FRB, respectively, as shown in FIG. 2. When the substrate protein fused to FKBP is coexpressed with Ubc9-FRB, treatment of HEK293 cells with the rapamycin-related dimerizer AP21967 induces SUMOylation of the substrate protein fused to FKBP at its specific SUMOylation site. […] Dependent on an EcoRl site in the coding sequence, seven C-terminal amino acids of the human STAT1a in the STAT1-FKBP/FRB fusion proteins are missing. For the SUMOylation analysis HEK293 (human embryonic kidney cells) cells have been used. HEK293 cells were cultured in Dulbecco's modified Eagle's medium with high glucose, complemented with 10% fetal calf serum, 2 mM L-glutamine, 100 U/ml penicillin and […] streptomycin. We performed transfection of HEK293 cells using the polyethylenimine transfection reagent. HEK293 cells of a fresh confluent 10 cm plate were transferred on a 12-well plate. After 12-24 h incubation about 70% cell confluence is reached. For each well 45 μl of serum/antibiotic free DMEM medium is mixed with 750 ng of the transfection-purity expression vector DNA (all together 47 μl) and vortexed. Then, 3 μl of vortexed polyethylenimin stock solution (1 mg/ml) is added and the mixture is vortexed. After incubation at room temperature for 10 min 450 μl fresh DMEM with antibiotics is added to the mixture and vortexed. The medium on the cells was then completely removed and immediately, the 500 μl transfection mix was added carefully to each well. The 12 well plate was rocked to ensure a proper distribution of the DNA/transfection reagent complex. After an incubation of the cells for 24 h at a 37° C. in a humidified CO2-incubator (5%) the cells were lysed in 150 μl Laemmli (2×) gel loading buffer (160 mM Tris-HCL, pH 6.8, 4% (w/v) sodium dodecyl sulphate (SDS), 20% (v/v) glycerol, 0.5% β-mercaptoethanol (v/v), 0.008% (w/v) bromophenol blue) and incubated for 10 min at 95° C. For western blot analysis the proteins were separated by SDS-PAGE, blotted on a PVDF membrane and developed with specific primary antibodies (α-Ubc9 (H81, Santa Cruz), α-pY701-STAT1 (Tyr701, Cell Signaling), α-STAT1 (Cell Signaling), α-p53 (1C12, Cell Signaling), α-SUMO1 (Cell Signaling), a horseradish peroxidase (HRP)-conjugated secondary antibody (different companies), the ECL+ (Amersham) or Immobilon™ Western (Millipore) and the LAS-3000 imaging system (Fuji).
As shown above, the SUMOylation of a protein of interest can be induced by the heterodimerisation with a binding protein fused to Ubc9. To find out if Trans-SUMOylation is useful for the characterisation of common protein interactions, protein binding pairs well known from the literature or found in two hybrid screens. […] Therefore the protein pairs were coexpressed with EGFP-SUMO1 in HEK293 cells and after 24h the transfectants were lysed and the protein extracts were analyzed in western blots.
Protein-protein interactions described in the cited references were tested for Trans-SUMOylation. Each specific protein-protein interaction was tested by coexpression of different combinations of protein 1 fused to Ubc9 (U) with protein 2 mostly fused two a tag (HA, FLAG, Myc, GST, ST). (++), strong TransSUMOylation; (+), TransSUMOylation; (+/−) weak TransSUMOylation; (−) no detectable TransSUMOylation; (MEKK1ca) the activated MAP3 kinase MEKK1, that can enhance protein SUMOylation, was coexpressed.
Protein-protein interaction of each pair of protein 1/protein 2 was tested by coexpression of different combinations of a protein 1 fused to Ubc9 (U) with protein 2 mostly fused two a Tag (HA, FLAG, GST, ST). […]

[5] = biological target: T5, MEK2-U (Homo sapiens, UniProt P36507+P63279); experiment: Trans-SUMOylation by MEK2-U; set-up: key: (++), strong TransSUMOylation; (+), TransSUMOylation; (+/−) weak TransSUMOylation; (−) no detectable TransSUMOylation; conditions: protein 2 construct coexpressed with MEK2-U and EGFP-SUMO1 in HEK293; western blot; Table 1
T5 construct: expressed in transfected cells; host or cells: HEK293
Source text: as §1, §2

[6] = biological target: T6, U-MEK2 (Homo sapiens, UniProt P36507+P63279); experiment: Trans-SUMOylation by U-MEK2; set-up: key: (++), strong TransSUMOylation; (+), TransSUMOylation; (+/−) weak TransSUMOylation; (−) no detectable TransSUMOylation; conditions: protein 2 construct coexpressed with U-MEK2 and EGFP-SUMO1 in HEK293; western blot; Table 1
T6 construct: expressed in transfected cells; host or cells: HEK293
Source text: as §1, §2

[7] = biological target: T7, U-ERK2 (Homo sapiens, UniProt P28482+P63279); experiment: Trans-SUMOylation by U-ERK2; conditions: protein 2 construct coexpressed with U-ERK2 and EGFP-SUMO1 in HEK293; western blot; Table 2
T7 construct: expressed in transfected cells; host or cells: HEK293

[8] = biological target: T8, U-p38α (Homo sapiens, UniProt P63279+Q16539); experiment: Trans-SUMOylation by U-p38α; conditions: protein 2 construct coexpressed with U-p38α and EGFP-SUMO1 in HEK293; western blot; Table 1
T8 construct: expressed in transfected cells; host or cells: HEK293

[9] = biological target: T9, CRSP9-U (Homo sapiens, UniProt O43513+P63279); experiment: Trans-SUMOylation by CRSP9-U; set-up: key: (++), strong TransSUMOylation; (+), TransSUMOylation; (+/−) weak TransSUMOylation; (−) no detectable TransSUMOylation; conditions: protein 2 construct coexpressed with CRSP9-U and EGFP-SUMO1 in HEK293; western blot; Table 2
T9 construct: Ubc9 (fusion partner); expressed in transfected cells; host or cells: HEK293
Source text: as §1, §2

[10] = biological target: T10, U-CDC37 (Homo sapiens, UniProt P63279+Q16543); experiment: Trans-SUMOylation by U-CDC37; set-up: key: (++), strong TransSUMOylation; (+), TransSUMOylation; (+/−) weak TransSUMOylation; (−) no detectable TransSUMOylation; conditions: protein 2 construct coexpressed with U-CDC37 and EGFP-SUMO1 in HEK293; western blot; Table 2
T10 construct: expressed in transfected cells; host or cells: HEK293
Source text: as §1, §2

[11] = biological target: T11, CDK4-U (Homo sapiens, UniProt P11802+P63279); experiment: Trans-SUMOylation by CDK4-U; set-up: key: (++), strong TransSUMOylation; (+), TransSUMOylation; (+/−) weak TransSUMOylation; (−) no detectable TransSUMOylation; conditions: protein 2 construct coexpressed with CDK4-U and EGFP-SUMO1 in HEK293; western blot; Table 1
T11 construct: expressed in transfected cells; host or cells: HEK293
Source text: as §1, §2

T2 sequence (P63279+Q12962 fused): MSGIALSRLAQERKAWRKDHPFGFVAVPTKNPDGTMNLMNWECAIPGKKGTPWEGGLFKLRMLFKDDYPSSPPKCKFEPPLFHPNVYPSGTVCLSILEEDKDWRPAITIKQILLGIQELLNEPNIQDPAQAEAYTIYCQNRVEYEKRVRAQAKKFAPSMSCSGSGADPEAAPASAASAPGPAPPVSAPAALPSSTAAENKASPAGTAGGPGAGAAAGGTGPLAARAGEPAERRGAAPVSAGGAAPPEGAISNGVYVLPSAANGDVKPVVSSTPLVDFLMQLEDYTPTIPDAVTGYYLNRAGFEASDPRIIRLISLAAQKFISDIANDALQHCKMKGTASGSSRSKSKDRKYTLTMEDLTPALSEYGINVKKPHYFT
T3 sequence (P28482+P63279 fused): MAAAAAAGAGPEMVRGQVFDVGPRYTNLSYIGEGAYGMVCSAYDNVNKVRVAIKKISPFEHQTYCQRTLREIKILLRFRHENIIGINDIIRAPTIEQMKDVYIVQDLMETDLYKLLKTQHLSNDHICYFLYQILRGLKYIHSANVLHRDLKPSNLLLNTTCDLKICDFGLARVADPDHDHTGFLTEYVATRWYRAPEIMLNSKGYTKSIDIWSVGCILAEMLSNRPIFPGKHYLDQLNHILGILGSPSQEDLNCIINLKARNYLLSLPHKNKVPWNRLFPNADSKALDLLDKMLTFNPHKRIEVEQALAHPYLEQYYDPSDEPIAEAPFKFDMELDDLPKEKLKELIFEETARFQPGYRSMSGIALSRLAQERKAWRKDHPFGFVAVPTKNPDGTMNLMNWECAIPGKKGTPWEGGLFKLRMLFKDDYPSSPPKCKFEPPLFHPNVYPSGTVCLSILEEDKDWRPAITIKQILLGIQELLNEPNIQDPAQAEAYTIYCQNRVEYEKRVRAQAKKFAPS
T4 sequence (P63279+Q8IW41 fused): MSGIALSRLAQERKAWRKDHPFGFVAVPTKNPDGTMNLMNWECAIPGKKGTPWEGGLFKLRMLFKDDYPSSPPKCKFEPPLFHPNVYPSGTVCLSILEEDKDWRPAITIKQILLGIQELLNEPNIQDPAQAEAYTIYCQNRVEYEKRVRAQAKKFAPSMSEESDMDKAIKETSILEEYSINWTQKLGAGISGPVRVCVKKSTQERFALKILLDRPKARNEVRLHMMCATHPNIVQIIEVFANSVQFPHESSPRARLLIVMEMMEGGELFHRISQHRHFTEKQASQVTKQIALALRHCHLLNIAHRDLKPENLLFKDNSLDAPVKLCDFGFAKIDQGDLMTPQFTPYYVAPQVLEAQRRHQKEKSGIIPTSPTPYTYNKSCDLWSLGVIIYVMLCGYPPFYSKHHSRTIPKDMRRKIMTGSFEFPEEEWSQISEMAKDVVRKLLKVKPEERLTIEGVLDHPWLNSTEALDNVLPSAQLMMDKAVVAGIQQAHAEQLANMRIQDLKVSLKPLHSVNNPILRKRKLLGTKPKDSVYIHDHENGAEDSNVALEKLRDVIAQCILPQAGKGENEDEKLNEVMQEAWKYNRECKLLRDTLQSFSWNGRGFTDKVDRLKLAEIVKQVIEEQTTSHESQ
T10 sequence (P63279+Q16543 fused): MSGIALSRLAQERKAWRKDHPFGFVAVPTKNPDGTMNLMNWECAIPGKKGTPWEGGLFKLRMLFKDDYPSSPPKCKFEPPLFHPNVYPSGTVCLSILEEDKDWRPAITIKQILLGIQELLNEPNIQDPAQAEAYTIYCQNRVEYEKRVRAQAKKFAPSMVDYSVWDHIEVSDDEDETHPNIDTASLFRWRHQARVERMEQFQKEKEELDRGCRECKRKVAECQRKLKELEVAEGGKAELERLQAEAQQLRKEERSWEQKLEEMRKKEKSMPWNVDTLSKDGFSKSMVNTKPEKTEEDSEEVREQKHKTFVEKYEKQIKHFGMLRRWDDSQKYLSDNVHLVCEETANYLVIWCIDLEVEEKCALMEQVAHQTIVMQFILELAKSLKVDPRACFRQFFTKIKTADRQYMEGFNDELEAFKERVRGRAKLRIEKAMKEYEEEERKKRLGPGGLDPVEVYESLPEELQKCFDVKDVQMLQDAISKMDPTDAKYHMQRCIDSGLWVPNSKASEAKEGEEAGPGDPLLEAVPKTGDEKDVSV
T1 sequence (P49137+P63279 fused): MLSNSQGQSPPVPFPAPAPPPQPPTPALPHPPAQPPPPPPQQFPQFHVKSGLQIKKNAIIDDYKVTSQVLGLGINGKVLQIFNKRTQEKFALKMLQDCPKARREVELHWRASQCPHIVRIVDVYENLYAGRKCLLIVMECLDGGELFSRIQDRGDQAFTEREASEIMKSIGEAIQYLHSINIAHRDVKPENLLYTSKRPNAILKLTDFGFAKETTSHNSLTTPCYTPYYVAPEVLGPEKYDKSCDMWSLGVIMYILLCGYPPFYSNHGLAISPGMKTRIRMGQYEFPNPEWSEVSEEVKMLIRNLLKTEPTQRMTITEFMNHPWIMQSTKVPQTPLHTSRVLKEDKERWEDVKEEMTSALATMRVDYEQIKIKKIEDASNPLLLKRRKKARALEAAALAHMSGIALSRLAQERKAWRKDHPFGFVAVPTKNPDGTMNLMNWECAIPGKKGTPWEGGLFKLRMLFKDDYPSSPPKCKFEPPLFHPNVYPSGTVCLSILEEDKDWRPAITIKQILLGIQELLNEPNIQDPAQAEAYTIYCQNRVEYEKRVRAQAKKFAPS
T8 sequence (P63279+Q16539 fused): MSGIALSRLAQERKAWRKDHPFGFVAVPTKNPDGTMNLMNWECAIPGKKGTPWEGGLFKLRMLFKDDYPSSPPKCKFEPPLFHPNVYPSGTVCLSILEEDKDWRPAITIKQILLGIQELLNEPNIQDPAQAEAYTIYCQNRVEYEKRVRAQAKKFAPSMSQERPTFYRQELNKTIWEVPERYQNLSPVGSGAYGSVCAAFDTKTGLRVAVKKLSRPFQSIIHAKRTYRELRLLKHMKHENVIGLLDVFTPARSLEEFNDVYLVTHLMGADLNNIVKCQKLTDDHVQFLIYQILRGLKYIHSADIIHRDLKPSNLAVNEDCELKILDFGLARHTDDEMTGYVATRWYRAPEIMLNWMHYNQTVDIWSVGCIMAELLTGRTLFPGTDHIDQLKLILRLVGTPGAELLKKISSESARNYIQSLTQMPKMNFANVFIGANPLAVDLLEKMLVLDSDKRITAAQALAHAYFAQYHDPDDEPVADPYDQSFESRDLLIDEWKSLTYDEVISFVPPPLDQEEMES
T9 sequence (O43513+P63279 fused): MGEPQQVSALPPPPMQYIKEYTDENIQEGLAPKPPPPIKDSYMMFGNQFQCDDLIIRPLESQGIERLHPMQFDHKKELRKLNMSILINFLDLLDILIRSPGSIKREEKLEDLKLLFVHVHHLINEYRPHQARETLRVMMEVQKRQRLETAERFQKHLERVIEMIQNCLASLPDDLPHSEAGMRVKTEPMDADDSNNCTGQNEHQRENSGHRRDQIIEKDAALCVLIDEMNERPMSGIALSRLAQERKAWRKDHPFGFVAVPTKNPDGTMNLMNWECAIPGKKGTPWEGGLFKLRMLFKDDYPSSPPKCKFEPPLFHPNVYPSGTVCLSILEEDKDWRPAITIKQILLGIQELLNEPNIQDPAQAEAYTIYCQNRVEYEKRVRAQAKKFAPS
T7 sequence (P63279+P28482 fused): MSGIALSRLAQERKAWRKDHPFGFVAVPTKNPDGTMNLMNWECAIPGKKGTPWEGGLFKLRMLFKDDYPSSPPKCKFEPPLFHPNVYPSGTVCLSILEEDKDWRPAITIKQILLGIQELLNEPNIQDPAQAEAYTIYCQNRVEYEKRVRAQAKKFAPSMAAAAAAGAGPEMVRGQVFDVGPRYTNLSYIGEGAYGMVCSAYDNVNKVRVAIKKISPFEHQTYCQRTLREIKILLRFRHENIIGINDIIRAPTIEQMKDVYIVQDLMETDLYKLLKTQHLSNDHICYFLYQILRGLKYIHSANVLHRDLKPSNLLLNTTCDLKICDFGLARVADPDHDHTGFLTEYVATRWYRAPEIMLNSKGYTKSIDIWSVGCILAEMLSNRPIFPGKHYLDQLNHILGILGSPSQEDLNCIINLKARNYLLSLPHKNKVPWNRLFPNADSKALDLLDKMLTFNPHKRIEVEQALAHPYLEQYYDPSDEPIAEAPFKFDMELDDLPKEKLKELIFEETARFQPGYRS
T11 sequence (P11802+P63279 fused): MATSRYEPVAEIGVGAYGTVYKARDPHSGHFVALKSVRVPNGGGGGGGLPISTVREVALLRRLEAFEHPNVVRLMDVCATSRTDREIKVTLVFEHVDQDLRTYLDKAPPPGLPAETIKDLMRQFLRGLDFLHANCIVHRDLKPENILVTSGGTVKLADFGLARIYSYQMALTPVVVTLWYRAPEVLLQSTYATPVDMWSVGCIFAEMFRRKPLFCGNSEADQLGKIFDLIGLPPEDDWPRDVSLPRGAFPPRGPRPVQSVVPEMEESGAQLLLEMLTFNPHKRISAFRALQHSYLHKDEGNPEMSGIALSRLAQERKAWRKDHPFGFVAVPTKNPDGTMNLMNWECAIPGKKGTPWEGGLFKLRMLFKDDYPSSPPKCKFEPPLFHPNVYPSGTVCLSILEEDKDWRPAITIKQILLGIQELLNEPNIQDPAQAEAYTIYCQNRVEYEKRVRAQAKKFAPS

Trans-SUMOylation [1]: −
Trans-SUMOylation [2]: (+/−)
Substance: GST-TAF10: TAF10 fused to GST tag

Trans-SUMOylation [3]: −
Trans-SUMOylation [4]: −
Trans-SUMOylation [5]: +
Trans-SUMOylation [6]: +
Trans-SUMOylation [7]: −
Trans-SUMOylation [8]: −
Substance: GST-ERK2: ERK2 fused to GST tag

Trans-SUMOylation [9]: −
Substance: GST-CRSP9: CRSP9 fused to GST tag

Trans-SUMOylation [10]: +
Trans-SUMOylation [11]: +
Substance: GST-CDC37: CDC37 fused to GST tag
